The target in this experiment is Fc-tagged human angiotensin-converting enzyme 2 (hACE2) (human) (UniProt Q9BYF1). In words: BLI. Background: Biolayer interferometry detects binding as a change in optical thickness at a sensor tip.

The term Kd denotes the concentration at which binding is half-saturated. A low value points to tighter binding. For the substance “6× His-tagged S1 protein of SARS-CoV-2 Omicron (B.1.1.529) variant (domain or fragment)”, the Kd came out at 7.4 nM.

As for “6× His-tagged S1 protein of SARS-CoV-2 Kappa (B.1.617.1) variant (domain or fragment)”, the Kd was 4.85 nM.

In the case of “6× His-tagged S1 protein of SARS-CoV-2 Delta (B.1.617.2) variant (domain or fragment)”, the dissociation constant Kd came out at 5.03 nM.

Values taken from paper PMC8828746.
